Data set [1] deals with T1, condensin hinge (Smc2/Smc4 hinge heterodimer) (Saccharomyces cerevisiae, UniProt P38989;Q12267 396-792;555-951).
T1 sequence 1: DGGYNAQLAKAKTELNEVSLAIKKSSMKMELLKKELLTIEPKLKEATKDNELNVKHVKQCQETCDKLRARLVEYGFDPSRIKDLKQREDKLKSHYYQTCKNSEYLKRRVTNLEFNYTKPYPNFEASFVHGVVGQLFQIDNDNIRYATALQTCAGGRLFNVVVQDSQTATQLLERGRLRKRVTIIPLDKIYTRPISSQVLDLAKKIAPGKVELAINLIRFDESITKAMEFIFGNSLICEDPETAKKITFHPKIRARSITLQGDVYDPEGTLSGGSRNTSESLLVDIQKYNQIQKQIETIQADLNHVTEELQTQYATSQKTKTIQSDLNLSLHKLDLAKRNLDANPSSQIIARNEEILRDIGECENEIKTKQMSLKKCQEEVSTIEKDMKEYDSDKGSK
T1 sequence 2: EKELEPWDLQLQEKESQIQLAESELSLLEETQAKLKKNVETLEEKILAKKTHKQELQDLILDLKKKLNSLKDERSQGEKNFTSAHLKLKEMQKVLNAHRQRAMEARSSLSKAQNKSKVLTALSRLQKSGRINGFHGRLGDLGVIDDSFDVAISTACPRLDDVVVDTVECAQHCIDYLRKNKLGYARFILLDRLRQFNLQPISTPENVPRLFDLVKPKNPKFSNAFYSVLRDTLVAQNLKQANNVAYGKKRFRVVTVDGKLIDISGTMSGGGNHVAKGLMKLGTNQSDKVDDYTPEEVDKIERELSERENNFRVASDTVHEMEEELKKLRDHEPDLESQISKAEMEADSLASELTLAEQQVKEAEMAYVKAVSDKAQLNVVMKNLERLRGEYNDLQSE
Kind of data set: fluorescence polarization; 20 nM DNA; 5 mM MgCl2; EMSA: 50 mM Tris-HCl pH 7.5, 50 mM KCl, 125 mM NaCl, 5 mM MgCl2, 5% glycerol, 1 mM DTT, 10 min on ice, gel at 4 C; FP: 25 mM Tris-HCl pH 7.5, 100 mM NaCl, 5 mM. The settings on record: protein: recombinant; tags: N-terminal His6-TEV on Smc2; Smc4 untagged; copies: 1;1; label: 5' 6-FAM on strand 1; blunt.

The target in data set [2] is T1, condensin hinge (Smc2/Smc4 hinge …). Kind of data set: EMSA; 10 nM DNA; 5 mM MgCl2; Fig. 2c legend gives 0.2-0.3 uM and a 25 bp oligo; EMSA: 50 mM Tris-HCl pH 7.5, 50 mM KCl, 125 mM NaCl, 5 mM MgCl2, 5% glycerol, 1 mM DTT, 10 min on ice, gel at 4 C; FP: 25 mM Tris-HCl pH 7.5, 100 mM NaCl, 5 mM. As to conditions: protein: recombinant; tags: N-terminal His6-TEV on Smc2; Smc4 untagged; copies: 1;1; label: 5' 6-FAM on strand 1; blunt. (In general: Mobility shift assays separate free from complexed probe on a gel.)

B1: 6-FAM 50-bp dsDNA (dsDNA)
DNA 1: GGATACGTAACAACGCTTATGCATCGCCGCCGCTACATCCCTGAGCTGAC
DNA 2: GTCAGCTCAGGGATGTAGCGGCGGCGATGCATAAGCGTTGTTACGTATCC
Take B1: the Kd in data set [1] is about 700 nM; in data set [2], about 141 nM.

One may read the Kd as the constant that tells how readily two partners part at equilibrium.
